Assay results reported in paper PMC5677370, “Structure-based nuclear import mechanism of histones H3 and H4 mediated by Kap123” (eLife, 2017).

Target: T1, full-length Kluyveromyces lactis (Kl) Kap123, wild type
T1 chain: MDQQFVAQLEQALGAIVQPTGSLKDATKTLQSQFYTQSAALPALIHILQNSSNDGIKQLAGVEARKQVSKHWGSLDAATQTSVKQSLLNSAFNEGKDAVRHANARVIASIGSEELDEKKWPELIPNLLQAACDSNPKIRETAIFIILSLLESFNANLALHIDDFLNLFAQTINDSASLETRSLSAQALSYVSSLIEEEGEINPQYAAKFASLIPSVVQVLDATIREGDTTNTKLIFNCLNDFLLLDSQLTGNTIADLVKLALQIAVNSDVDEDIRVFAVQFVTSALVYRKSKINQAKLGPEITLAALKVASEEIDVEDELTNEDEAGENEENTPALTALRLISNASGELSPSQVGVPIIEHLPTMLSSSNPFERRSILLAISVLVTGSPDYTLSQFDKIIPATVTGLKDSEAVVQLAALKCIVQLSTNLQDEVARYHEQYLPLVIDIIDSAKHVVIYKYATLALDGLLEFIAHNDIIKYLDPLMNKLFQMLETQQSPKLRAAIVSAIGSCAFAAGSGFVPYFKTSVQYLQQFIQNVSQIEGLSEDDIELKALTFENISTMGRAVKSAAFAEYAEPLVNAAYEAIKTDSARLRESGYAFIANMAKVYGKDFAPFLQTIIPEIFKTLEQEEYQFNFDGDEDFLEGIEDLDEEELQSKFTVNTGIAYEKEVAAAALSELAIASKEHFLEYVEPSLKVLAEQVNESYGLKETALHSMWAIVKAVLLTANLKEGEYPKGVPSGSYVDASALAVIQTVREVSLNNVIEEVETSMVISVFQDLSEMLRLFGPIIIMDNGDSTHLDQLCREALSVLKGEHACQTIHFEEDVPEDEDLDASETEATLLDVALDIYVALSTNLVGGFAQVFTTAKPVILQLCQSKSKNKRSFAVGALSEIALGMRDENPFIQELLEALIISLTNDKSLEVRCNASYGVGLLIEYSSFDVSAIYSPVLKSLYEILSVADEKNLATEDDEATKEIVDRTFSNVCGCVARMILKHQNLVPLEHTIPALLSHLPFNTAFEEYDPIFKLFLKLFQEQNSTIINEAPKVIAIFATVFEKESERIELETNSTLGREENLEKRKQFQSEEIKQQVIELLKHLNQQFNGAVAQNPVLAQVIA
Test: SPR
Conditions: chain shown with the change; 7°C; wild-type Kap123 immobilized on a CM5 chip with 7116 RU; peptides injected at 0-10 µM; parent: est. 1.00; read off a plot

ratio to parent: 0.4
B1: wild-type H4_(1–21)-NLS peptide, P02309 K5Q; K12Q (peptide)
chain: SGRGQGGKGLGQGGAKRHRKI
